According to US20150307616A1 (APEXIGEN, published 2015):
Numbering of substitutions follows the chain as printed.

Assays:
[1] = target: T1, human CD40 on the cell surface (human, UniProt P25942 21-277); assay: cell-based or functional assay
[2] = target: T1, human CD40 on the cell surface; assay: cell-based or functional assay; remark: listed apart in the source
[3] = target: T2, mouse CD40 on mouse A20 cells (mouse, UniProt P27512 20-289); assay: FACS on mouse A20 cells, goat anti-human IgG (H+L)-R-PE
T2 construct: whole, on cells; also called A20 cell line which expresses mouse CD40
Description: Cross-reactivity of APX005 with mouse CD40 was further determined by FACS binding to a mouse A20 cell line which expresses mouse CD40. An aliquot of 0.5×10⁶ A20 cells was added to 96 well plates and incubated with 100 μl diluted rat anti-mouse CD40 antibody conjugated with PE, APX005 or IgG1 control antibodies. After washing, 100 μl Goat-anti human IgG (H+L) conjugated with R-PE (Southern Biotech CAT#2040-09) were added at 1:200 dilution in PBS to the sample and incubated for detection of APX005 and control human IgG1. A rat anti-mouse CD40 antibody conjugated with PE was used as positive control. Samples were re-suspended with 0.5 ml PBS and analyzed by FACS.

human CD40 = target: T3, human CD40 (human, UniProt P25942 21-193, limits assumed); assay: method not stated
T3 construct: also called immobilized human CD40

[4] = target: T1, human CD40 on the cell surface; assay: FACS on Ramos cells, 30 minutes at 4 C, Alexa 488 goat anti-human IgG
Description: (§1) In order to assess the target mediated-internalization of APX005 for evaluating its impact on ADCC activity, Ramos cells were incubated with APX005 for 4 h at 37° C., a temperature permissive for internalization, or at 4° C. for 30 minutes, a temperature at which internalization is minimized. Cells were washed with staining buffer, followed by incubation with Alexa 488 labeled goat anti-human IgG for an additional 30 minutes at 4° C. FACS analysis was performed to examine the level of APX005 on the cell surface.

[5] = target: T4, mouse CD40 (coated protein) (mouse, UniProt P27512 20-193, limits assumed); assay: direct ELISA by the text (1 ug/ml CD40 coated, goat anti-human IgG-HRP); the axis of the sheet is labelled MFI
T4 construct: Coated at 1 µg/ml on ELISA plates
Description: Cross-reactivity was assessed by direct ELISA. A total of 1 μg/ml of human CD40, monkey CD40 or mouse CD40 was coated on ELISA plates followed by incubation with […] of APX005 or control IgG1. Antibodies bound to CD40 were detected using goat anti-human IgG conjugated with HRP. APX005 clearly crossreacts with monkey CD40 but not mouse CD40. (FIG. 11A)

[6] = target: T1, human CD40 on the cell surface; assay: FACS on Ramos cells, 4 h at 37 C, Alexa 488 goat anti-human IgG
Description: as §1

T1 sequence (P25942 21-277): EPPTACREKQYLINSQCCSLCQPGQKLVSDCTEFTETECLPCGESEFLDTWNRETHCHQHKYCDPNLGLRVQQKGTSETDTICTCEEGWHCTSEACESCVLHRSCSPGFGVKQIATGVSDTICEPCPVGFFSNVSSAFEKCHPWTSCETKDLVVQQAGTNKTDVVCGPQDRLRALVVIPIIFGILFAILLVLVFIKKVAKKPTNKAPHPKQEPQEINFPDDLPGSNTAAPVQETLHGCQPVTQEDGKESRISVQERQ
T4 sequence (P27512 20-193 limits assumed): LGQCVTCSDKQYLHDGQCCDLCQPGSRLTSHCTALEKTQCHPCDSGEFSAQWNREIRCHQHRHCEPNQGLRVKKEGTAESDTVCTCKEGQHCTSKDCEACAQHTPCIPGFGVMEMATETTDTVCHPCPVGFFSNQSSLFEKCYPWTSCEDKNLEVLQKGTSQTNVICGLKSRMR
T2 sequence (P27512 20-289): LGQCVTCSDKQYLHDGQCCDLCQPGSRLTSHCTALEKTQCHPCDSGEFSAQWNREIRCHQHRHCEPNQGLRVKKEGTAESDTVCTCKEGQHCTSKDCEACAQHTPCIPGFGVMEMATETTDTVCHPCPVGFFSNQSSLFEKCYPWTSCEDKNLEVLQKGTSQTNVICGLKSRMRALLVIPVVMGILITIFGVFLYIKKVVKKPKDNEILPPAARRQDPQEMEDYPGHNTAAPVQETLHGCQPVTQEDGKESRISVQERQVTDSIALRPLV
T3 sequence (P25942 21-193 limits assumed): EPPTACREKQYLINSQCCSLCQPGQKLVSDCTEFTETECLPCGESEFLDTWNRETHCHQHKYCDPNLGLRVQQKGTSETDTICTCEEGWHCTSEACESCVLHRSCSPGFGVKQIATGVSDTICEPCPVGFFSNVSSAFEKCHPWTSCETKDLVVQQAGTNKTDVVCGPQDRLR

B1: cR-8 chimeric anti-CD40 antibody (antibody, V domains shown)
VH: QSLEESGGDLVKPGASLTLTCTASGFSFSSTYVCWVRQAPGKGLEWIACIYTGDGTNYSASWAKGRFTISKPSSTTVTLQMTSLTPADTATYFCARPDITYGFAINFWGPGTLVTVSS
VL: DIVMTQTPSSASEPVGGTVTIKCQASQSISSRLAWYQQKPGQPPKLLIYRASTLASGVPSRFKGSGSGTEFTLTISDLECADAATYYCQCTGYGISWPIGGGTEVVVK
- ADCC (% cytotoxicity of Ramos cell at 1 µg/ml) [1]: 33%
- Pro-apoptosis activity (IC50) [1]: 0.45 µg/mL

B2: R-9 rabbit anti-CD40 antibody (antibody, V domains shown)
VH: QSLEESGGDLVKPGASLTLTCTASRFSFSSTYMCWVRQAPGKGLEWIACTYTGSSGGTYYASWAKGRFTISQTSSTTVTLQLTGLTPADTATYFCARPDVGFDFAINFWGPGTLVTVSS
VL: B1 VL with P59S, E70Q, G94T, I99F
- CD83 expression on human monocyte-derived DC (DC maturation assay) [2]: > 50%

B3: R-6 rabbit anti-CD40 antibody (antibody, V domains shown)
VH: GGSLTLTGTASGFSFSSSYSMCWVRQAPGKGLEWIGCIDTGRGYTYHASGAKGRFTFSKTSSTTVTLQMTSLTAADTATYFCARSSYVRYDNRNYGFNLWGPGTLVTVSS
VL: DIVMTQTPASVEAAVGGTITINCQASESISSWLSWYQQKPGQRPKLLIYYTSNLASGVPSRFKGSGAGTDFTLTISDLECADAATYYCQSNYGSSSSTYYGFGGGTEVVVK
- CD83 expression on human monocyte-derived DC (DC maturation assay) [2]: > 50%

B4: 19-59 rabbit anti-CD40 antibody (antibody, V domains shown)
VH: QSVEESGGRLVTPGTPLTLTCTVSGFSLSDYVMRWVRQAPGKGLEWIGVISSAGNTYYATWAKDRFTISKTSTTVDLRIASPTTEDTATYFCARIWRPDDPTNSDIWGPGTLVTVSS
VL: DVVMTQTPSSTSAAVGGTVTIKCQASESISSSLAWYQQKPGQPPKLLIYYASDLASGVPSRFSGSRSGTEYTLTISGVQREDAATYYCLGGYATAAYRTAFGGGTELEIL
- CD83 expression on human monocyte-derived DC (DC maturation assay) [2]: > 50%

B5: R-18 rabbit anti-CD40 antibody (antibody, V domains shown)
VH: QSLEESGGDLVKPGASLTLTCTASGIDFSSYYYMCWVRQAPGKGLEWIGCIYAGSGSTYYASWAKGRFTISKTSSTTVTLQMTSLTAADTATYFCARSGYNDGSYYNLWGPGTLVTVSS
VL: DIVMTQTPSSVEAAVGGTVTIKCQASQSIYTWLAWYQQKPGQPPKLLIYKASTLASGVPSRFKGSGSGTDYTLTISDLECDDAATYYCQRYSWNGSYGVSFGGGTEVVVR
- CD83 expression on human monocyte-derived DC (DC maturation assay) [2]: > 50%

B6: R-24 rabbit anti-CD40 antibody (antibody, V domains shown)
VH: QSLEESGGDLVKPGASLTLTCTASGFSFSRGYYICWVRQAPGKGLEWIACIGAGSGGTYFASWAKGRFSISRTSSTTVTLQMTSLTAADTATYFCAREDAGNDDYGYARNLWGPGTLVTVSS
VL: DIVMTQTPASVSAAVGGTVTINCQASESAYTLLAWYQQKPGQPPKLLIYGASILESGVPSRFKGSGSGTDFTLTISDLECADAATYYCQSHYFGSSSGYANTFGGGTEVVVK
- CD83 expression on human monocyte-derived DC (DC maturation assay) [2]: > 50%

B7: cR-33 chimeric anti-CD40 antibody (antibody, V domains shown)
VH: QSLEESGGDLVKPGASLTLTCTASGFSFSSSYWICWVRQAPGKGLEWIACINTGSSVTTVYARWAKGRFTISKASSTTVTLQMTSLTAADTATYFCARYIIPGYNFNLWGPGTLVTVSS
VL: AYDMTQTPASVEVAVGGTVTINCQASQSISSYLYWYQQKPGQPPKLLIYDASKLASGVPSRFKGSGSGTQFTLTITGVECADAATYYCQQGYSHINVDNIFGGGTEVVVK
- ADCC (% cytotoxicity of Ramos cell at 1 µg/ml) [1]: 29%
- Pro-apoptosis activity (IC50) [1]: 0.9 µg/mL

B8: R-33 rabbit anti-CD40 antibody (antibody, V domains shown)
VH: B7 VH
VL: B7 VL
- CD83 expression on human monocyte-derived DC (DC maturation assay) [2]: > 50%

B9: 19-21 rabbit anti-CD40 antibody (antibody, V domains shown)
VH: QSLEESGGRLVTPGTPLTLTCTVSGFDLSSNAMNWVRQAPGKGLEWIGYITISGSAGYASWAKGRFTISKTSTTVDLKISSPTTEDTATYFCARGYNTMAIWGPGTLVTVSS
VL: AQVLTQTPSPVSAPVGGTVTINCQSSQNVLINNRLAWYQQKPGQPPKLLIYDASKLASGVPSRFKGSGSGTQFTLTISGVQCDDAATYYCQAGYSSGDGNAFGGGTEVVVK
- CD83 expression on human monocyte-derived DC (DC maturation assay) [2]: > 50%

B10: c19-21 chimeric anti-CD40 antibody (antibody, V domains shown)
VH: B9 VH
VL: B9 VL
- ADCC (% cytotoxicity of Ramos cell at 1 µg/ml) [1]: 26%
- Pro-apoptosis activity (IC50) [1]: 0.02 µg/mL

B11: R-3 rabbit anti-CD40 antibody (antibody, V domains shown)
VH: QSLEESGGDLVKPGASLTLTCTASGFSFSDSFWIAWVRQAPGKGLEWIGCIHALSSGSTYYANWARGRFTISKTSSTTVTLQMNSLTAADTATYFCARSYAGYADYNVATGLNLWGPGTLVTVSS
VL: DVVMTQTPSSASAAVGGTVTTKCQASQSIGSYLAWYQQKPGQRPKLLIYAASNLASGVPSRFKGSRSGTEYTLTISGVQREDAATYYCLGSFTGSDTTFGGGTELEIL
- CD83 expression on human monocyte-derived DC (DC maturation assay) [2]: > 50%

B12: cR-3 chimeric anti-CD40 antibody (antibody, V domains shown)
VH: B11 VH
VL: B11 VL
- ADCC (% cytotoxicity of Ramos cell at 1 µg/ml) [1]: 30%
- Pro-apoptosis activity (IC50) [1]: 0.57 µg/mL

B13: 19-45 rabbit anti-CD40 antibody (antibody, V domains shown)
VH: QSVEESGGRLVTPGTPLTLNCTVSGFSLSSYDMNWVRQAPGKGLEWIGVIWNNGEIFYASWAKGRFTISKTSTTVDLKITSPSTEDTATYFCAGDADGGVVSYFHVWGPGTLVTVSS
VL: AYDMTQTPASVEVAVGGTVTIKCQASQTIYTYLAWYLQKPGQPPKLLIYEASKLASGVSSRFEGSGSGTQFTLTISGVQCDDAATYYCQQGYNSRHVDNVFGGGTEVVVK
- CD83 expression on human monocyte-derived DC (DC maturation assay) [2]: > 50%

B14: R-36 rabbit anti-CD40 antibody (antibody, V domains shown)
VH: QQQLVESGGGLVKPGASLTLTCKASGFSFSSTYWICWVRQAPGKGLEWIGCINSDDSGTNVYANWAKGRFTISKASSTTVTLQMTSLTAADTATYFCARYPIPGYHFNLWGPGTLVTVSS
VL: AYDMTQTPASVEVAVGGTVTIKCQASQNIYGYLFWYQQKPGQPPNLLIAEASKLPSGVPSRFKGSGSGTEYSLTISGVECADAATYYCQQSYSHINVDNIFGGGTEVVVK
- CD83 expression on human monocyte-derived DC (DC maturation assay) [2]: > 50%

B15: R-16 rabbit anti-CD40 antibody (antibody, V domains shown)
VH: QSLEESGGGLVKPGGTLTLTCKASGFSLNYYWPCWVRQAPGKGLEWVACLNGGDSDTTVYARWAKGRFTISKASSTTVTLQMTSLTAADTATYFCARYIIPGYHFNLWGPGTLVTVSS
VL: AYDMTQTPASVSAAVGDTVTIKCQASQSISSYLYWYQQKPGQPPKLLIYQASKLASGVPSRFKGSGSGTEYTLTISDLECADVATYYCQQGYSHINVDNIFGGGFQVVVK
- CD83 expression on human monocyte-derived DC (DC maturation assay) [2]: > 50%

B16: APX005 humanized anti-CD40 antibody (antibody, IgG1, V domains shown)
VH: QVQLVESGGGVVQPGRSLRLSCAASGFSFSSTYVCWVRQAPGKGLEWIACIYTGDGTNYSASWAKGRFTISKDSSKNTVYLQMNSLRAEDTAVYFCARPDITYGFAINFWGPGTLVTVSS
VL: DIQMTQSPSSLSASVGDRVTIKCQASQSISSRLAWYQQKPGKPPKLLIYRASTLASGVPSRFSGSGSGTDFTLTISSLQPEDVATYYCQCTGYGISWPIGGGTKVEIK
notes: also called humanized R-8
- binding result [3]: no binding (tested: 10000 ng/ml)
- Kd (human CD40): 0.96 nM
- EC50 (read off the curve) [4]: ~0.05 µg/mL
- binding result [5]: no binding
- EC50 (read off the curve) [6]: ~0.05 µg/mL
